Assay results taken from publication PMC11807975, “The secreted host-cell protein clusterin interacts with PmpD and promotes Chlamydia trachomatis infection” (Frontiers in Cellular and Infection Microbiology, 2024).
“And” between values parts separate entries of the source, which are not always exact repeats. Identical values can stand only once.

Molecular target: the molecule itself
Experiment: native gel or EMSA; Blue Native-PAGE (Native PAGE Novex 3-12% Bis-Tris) of the SEC elution fraction of rD72 at 1.4 ml; Coomassie stain

B1: recombinant D72 (rD72), proteolytically processed fragment of Chlamydia trachomatis serovar E PmpD, residues 68-761, N-terminal 10x His-Tag (domain or fragment)
chain: DSQAEGQYRLIVGDPSSFQEKDADTLPGKVEQSTLFSVTNPVVFQGVDQQDQVSSQGLICSFTSSNLDSPRDGESFLGIAFVGDSSKAGITLTDVKASLSGAALYSTEDLIFEKIKGGLEFASCSSLEQGGACAAQSILIHDCQGLQVKHCTTAVNAEGSSANDHLGFGGGAFFVTGSLSGEKSLYMPAGDMVVANCDGAISFEGNSANFANGGAIAASGKVLFVANDKKTSFIENRALSGGAIAASSDIAFQNCAELVFKGNCAIGTEDKGSLGGGAISSLGTVLLQGNHGITCDKNESASQGGAIFGKNCQISDNEGPVVFRDSTACLGGGAIAAQEIVSIQNNQAGISFEGGKASFGGGIACGSFSSAGGASVLGTIDISKNLGAISFSRTLCTTSDLGQMEYQGGGALFGENISLSENAGVLTFKDNIVKTFASNGKILGGGAILATGKVEITNNSEGISFTGNARAPQALPTQEEFPLFSKKEGRPLSSGYSGGGAILGREVAILHNAAVVFEQNRLQCSEEEATLLGCCGGGAVHGMDSTSIVGNSSVRFGNNYAMGQGVSGGALLSKTVQLAGNGSVDFSRNIASLGGGALQASEGNCELVDNGYVLFRDNRGRVYGGAISCLRGDVVISGNKGRVEFKDNIATRLYVEETVEKVEEVEPAPEQKDNNELSFLGRAEQSFITAANQA
notes: In solution a high-molecular-weight oligomer (720-1048 kDa by Blue Native-PAGE, calculated 10- to 15-mer); also called rPmpD; His-PmpD; source: E. coli Origami, purified (Ni-NTA agarose, dialysed in PBS); not shown: 10xHis, N-terminal, kept; copies: 10-15
stoichiometry N: 10 and 15
